# Publication PMC9482650, “Quantitative fragmentomics allow affinity mapping of interactomes” (Nature Communications, 2022)
# T1: TIAM2, Q8IVF5
# T1 sequence (Q8IVF5 885-986, limits assumed, looked up): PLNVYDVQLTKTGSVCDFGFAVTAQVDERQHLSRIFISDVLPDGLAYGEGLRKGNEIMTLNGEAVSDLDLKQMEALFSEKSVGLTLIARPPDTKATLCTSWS
# Target: MAST2, Q6P0Q8
# Assay: holdup assay
# Parameters: key: below the threshold = too weak to quantify, mostly under pKd 3.1 to 4
# Details: plain residues with an end cap or a label only (N-terminal biotin on a linker: ado-ado)
# MAST2, Q6P0Q8, sequence (Q6P0Q8 1099-1202): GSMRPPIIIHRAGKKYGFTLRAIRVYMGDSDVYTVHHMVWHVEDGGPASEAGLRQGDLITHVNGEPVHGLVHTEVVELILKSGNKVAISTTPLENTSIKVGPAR
row,pKd,Binder
1,below the threshold,"ELKAEDEVQI [DCHS2, Q6V1P9]"
2,below the threshold,"PDSYHRRDFW [U2AF2, P26368]"
3,below the threshold,"SQDPKKPSRV [CBY2, Q8NA61]"
4,3.81,"DAAHHDESNC [FMNL3, Q8IVF7]"
5,5.47,"IGHEDLETAV [DGKI, O75912]"
6,5.51,"EKPIDSETKM [SLC1A3, P43003]"

# Same assay, conditions: plain residues with an end cap or a label only (N-terminal biotin on a linker: ado-ado, ttds)
row,pKd,Binder
1,5.18,"SNAKAVETDV [KCNA4, P22459]"

# Same assay, conditions: plain residues with an end cap or a label only (N-terminal biotin on a linker: ahx)
row,pKd,Binder
1,below the threshold,"SAPATLSSRA [PDLIM2, Q96JY6]"
2,5.17,"KDECVIATEV [DLL1, O00548]"
3,4.5,"SKKNELFSNL [NHERF1, O14745]"
4,5.08,"VNENQKEYFF [CNTNAP4, Q9C0A0]"
5,4.79,"ADENEQVSAV [RAPGEF6, Q8TEU7]"
6,5.3,"KEYDDELTFF [USH1C, Q9Y6N9]"
7,3.86,"AKPQPVDSWV [ARVCF, O00192]"
8,4.46,"YNSFLSVTTV [PDZRN3, Q9UPQ7]"
9,4.94,"PKMKLNETSF [SHKBP1, Q8TBC3]"
10,4.38,"HSATSVHTSV [MTMR1, Q13613]"

# Same assay, conditions: plain residues with an end cap or a label only (N-terminal biotin on a linker: ttds)
row,pKd,Binder
1,5.31,"DLDEEEDTHL [PODXL, O00592]"
2,5.35,"GRLLGLETNV [ARHGEF26, Q96DR7]"
3,4.78,"GARVSKETPL [MAPK12, P53778]"
4,4.83,"KQVVPFSSSV [GDA, Q9Y2T3]"
5,4.65,"NPDALPETLV [ARHGAP6, O43182]"
6,below the threshold,"PFRSRSPSEV [GPR6, P46095]"
7,5.39,"FVETQHQTQV [FAT3, Q8TDW7]"
8,4.42,"QRPYRRESEI [KCNJ12, Q14500]"

# Target: FRMPD2_1, Q68DX3
# Sequence (Q68DX3 770-861): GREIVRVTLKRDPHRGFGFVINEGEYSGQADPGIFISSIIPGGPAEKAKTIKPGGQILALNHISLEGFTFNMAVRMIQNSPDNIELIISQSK
# Assay: holdup assay
# Parameters: key: below the threshold = too weak to quantify, mostly under pKd 3.1 to 4
# Details: plain residues with an end cap or a label only (N-terminal biotin on a linker: ado-ado)
row,pKd,Binder
1,below the threshold,"ELKAEDEVQI [DCHS2, Q6V1P9]"
2,below the threshold,"PDSYHRRDFW [U2AF2, P26368]"
3,below the threshold,"SQDPKKPSRV [CBY2, Q8NA61]"
4,below the threshold,"DAAHHDESNC [FMNL3, Q8IVF7]"
5,below the threshold,"IGHEDLETAV [DGKI, O75912]"
6,below the threshold,"EKPIDSETKM [SLC1A3, P43003]"

# Same assay, conditions: plain residues with an end cap or a label only (N-terminal biotin on a linker: ado-ado, ttds)
row,pKd,Binder
1,below the threshold,"SNAKAVETDV [KCNA4, P22459]"

# Same assay, conditions: plain residues with an end cap or a label only (N-terminal biotin on a linker: ahx)
row,pKd,Binder
1,below the threshold,"SAPATLSSRA [PDLIM2, Q96JY6]"
2,below the threshold,"KDECVIATEV [DLL1, O00548]"
3,below the threshold,"SKKNELFSNL [NHERF1, O14745]"
4,below the threshold,"VNENQKEYFF [CNTNAP4, Q9C0A0]"
5,below the threshold,"ADENEQVSAV [RAPGEF6, Q8TEU7]"
6,below the threshold,"KEYDDELTFF [USH1C, Q9Y6N9]"
7,below the threshold,"AKPQPVDSWV [ARVCF, O00192]"
8,3.54,"YNSFLSVTTV [PDZRN3, Q9UPQ7]"
9,below the threshold,"PKMKLNETSF [SHKBP1, Q8TBC3]"
10,below the threshold,"HSATSVHTSV [MTMR1, Q13613]"

# Same assay, conditions: plain residues with an end cap or a label only (N-terminal biotin on a linker: ttds)
row,pKd,Binder
1,below the threshold,"DLDEEEDTHL [PODXL, O00592]"
2,below the threshold,"GRLLGLETNV [ARHGEF26, Q96DR7]"
3,below the threshold,"GARVSKETPL [MAPK12, P53778]"
4,below the threshold,"KQVVPFSSSV [GDA, Q9Y2T3]"
5,below the threshold,"NPDALPETLV [ARHGAP6, O43182]"
6,below the threshold,"PFRSRSPSEV [GPR6, P46095]"
7,below the threshold,"FVETQHQTQV [FAT3, Q8TDW7]"
8,below the threshold,"QRPYRRESEI [KCNJ12, Q14500]"

# Target: T1, TIAM2, Q8IVF5
# Assay: holdup assay
# Parameters: key: below the threshold = too weak to quantify, mostly under pKd 3.1 to 4
# Details: plain residues with an end cap or a label only (N-terminal biotin on a linker: ado-ado)
row,pKd,Binder
1,3.52,"ELKAEDEVQI [DCHS2, Q6V1P9]"
2,below the threshold,"PDSYHRRDFW [U2AF2, P26368]"
3,below the threshold,"SQDPKKPSRV [CBY2, Q8NA61]"
4,3.8,"DAAHHDESNC [FMNL3, Q8IVF7]"
5,below the threshold,"IGHEDLETAV [DGKI, O75912]"
6,below the threshold,"EKPIDSETKM [SLC1A3, P43003]"

# Same assay, conditions: plain residues with an end cap or a label only (N-terminal biotin on a linker: ado-ado, ttds)
row,pKd,Binder
1,below the threshold,"SNAKAVETDV [KCNA4, P22459]"

# Same assay, conditions: plain residues with an end cap or a label only (N-terminal biotin on a linker: ahx)
row,pKd,Binder
1,below the threshold,"SAPATLSSRA [PDLIM2, Q96JY6]"
2,below the threshold,"KDECVIATEV [DLL1, O00548]"
3,below the threshold,"SKKNELFSNL [NHERF1, O14745]"
4,4.62,"VNENQKEYFF [CNTNAP4, Q9C0A0]"
5,below the threshold,"ADENEQVSAV [RAPGEF6, Q8TEU7]"
6,below the threshold,"KEYDDELTFF [USH1C, Q9Y6N9]"
7,below the threshold,"AKPQPVDSWV [ARVCF, O00192]"
8,below the threshold,"YNSFLSVTTV [PDZRN3, Q9UPQ7]"
9,below the threshold,"PKMKLNETSF [SHKBP1, Q8TBC3]"
10,below the threshold,"HSATSVHTSV [MTMR1, Q13613]"

# Same assay, conditions: plain residues with an end cap or a label only (N-terminal biotin on a linker: ttds)
row,pKd,Binder
1,below the threshold,"DLDEEEDTHL [PODXL, O00592]"
2,below the threshold,"GRLLGLETNV [ARHGEF26, Q96DR7]"
3,below the threshold,"GARVSKETPL [MAPK12, P53778]"
4,below the threshold,"KQVVPFSSSV [GDA, Q9Y2T3]"
5,below the threshold,"NPDALPETLV [ARHGAP6, O43182]"
6,below the threshold,"PFRSRSPSEV [GPR6, P46095]"
7,below the threshold,"FVETQHQTQV [FAT3, Q8TDW7]"
8,below the threshold,"QRPYRRESEI [KCNJ12, Q14500]"
